Consider 91 sequences from the supplement of paper PMC9112550, “Optimization of the antimicrobial peptide Bac7 by deep mutational scanning” (BMC Biology, 2022).
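Note: peptides expressed intracellularly from a pBAD plasmid library in pooled LB shake-flask culture, induced with 0.3% L-arabinose, DNA abundance read by NGS, three biological replicates, DESeq2 with apeglm shrinkage.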

The data set has as its system Escherichia coli TOP10. The experiment in a line: shrunken log2 fold change of peptide-encoding DNA abundance (4.5 h post-induction vs induction); higher = less antimicrobial activity (less host growth inhibition). As to conditions: time post-induction: 4.5 h; library: site-saturation at positions 5, 18, 19, 20.
For the sequence RRIRLRPPRLPRPRPRPNWVPRP, the “shrunken log2 fold change” value was -0.0131.

With RRIRGRPPRLPRPRPRPVSYPRP, the “shrunken log2 fold change” value was determined as 0.291.

For the sequence RRIRIRPPRLPRPRPRPQTHPRP, the “shrunken log2 fold change” value is -0.412.

As to RRIRERPPRLPRPRPRPNPIPRP, the “shrunken log2 fold change” value is -0.213.

Take RRIRYRPPRLPRPRPRPGCIPRP: the “shrunken log2 fold change” value is -0.819.

As for RRIRRRPPRLPRPRPRPAHWPRP, the “shrunken log2 fold change” value came to 0.672.

Regarding RRIRHRPPRLPRPRPRPYMGPRP, the “shrunken log2 fold change” value was -0.201.

As for RRIRNRPPRLPRPRPRPHIQPRP, the “shrunken log2 fold change” value is 2.34.

Take RRIRNRPPRLPRPRPRPIKTPRP: the “shrunken log2 fold change” value was -0.0156.

For the sequence RRIRCRPPRLPRPRPRPTIHPRP, the “shrunken log2 fold change” value was -0.883.

For RRIRERPPRLPRPRPRPIHTPRP, the “shrunken log2 fold change” value is 0.0013.

As to RRIRQRPPRLPRPRPRPASTPRP, the “shrunken log2 fold change” value is -0.0855.

RRIRKRPPRLPRPRPRPNNEPRP: the “shrunken log2 fold change” value was 0.0823.

Take RRIRMRPPRLPRPRPRPDPGPRP: the “shrunken log2 fold change” value is 0.46.

For the sequence RRIRLRPPRLPRPRPRPSWNPRP, the “shrunken log2 fold change” value is -0.342.

For RRIRERPPRLPRPRPRPCLVPRP, the “shrunken log2 fold change” value came out at 0.0202.

Take RRIRVRPPRLPRPRPRPKPDPRP: the “shrunken log2 fold change” value is 0.206.

On to RRIRCRPPRLPRPRPRPQTGPRP, for which the “shrunken log2 fold change” value is -0.144.

For RRIRKRPPRLPRPRPRPRGIPRP, the “shrunken log2 fold change” value is 0.0697.

In the case of RRIRMRPPRLPRPRPRPNCEPRP, the “shrunken log2 fold change” value was 0.247.

Take RRIRSRPPRLPRPRPRPYFGPRP: the “shrunken log2 fold change” value is -0.642.

Consider RRIRGRPPRLPRPRPRPDHRPRP, for which the “shrunken log2 fold change” value is -0.178.

As to RRIRQRPPRLPRPRPRPDCLPRP, the “shrunken log2 fold change” value is -0.793.

In the case of RRIRHRPPRLPRPRPRPVDSPRP, the “shrunken log2 fold change” value was -0.175.

On to RRIRIRPPRLPRPRPRPWNMPRP, for which the “shrunken log2 fold change” value was found to be 0.0777.

As to RRIRFRPPRLPRPRPRPPWYPRP, the “shrunken log2 fold change” value is -0.3.

For the sequence RRIRCRPPRLPRPRPRPQTKPRP, the “shrunken log2 fold change” value is 0.146.

For the sequence RRIRSRPPRLPRPRPRPELCPRP, the “shrunken log2 fold change” value was -0.0749.

As for RRIRDRPPRLPRPRPRPQMRPRP, the “shrunken log2 fold change” value was -0.0122.

Turning to RRIRLRPPRLPRPRPRPNKAPRP, the “shrunken log2 fold change” value is -0.0163.

Regarding RRIRWRPPRLPRPRPRPEPRPRP, the “shrunken log2 fold change” value was 0.886.

Consider RRIRLRPPRLPRPRPRPYLVPRP, for which the “shrunken log2 fold change” value is -1.06.

Turning to RRIRMRPPRLPRPRPRPVKYPRP, the “shrunken log2 fold change” value stood at 0.0631.

RRIRRRPPRLPRPRPRPFQVPRP: the “shrunken log2 fold change” value was -0.0462.

For RRIRFRPPRLPRPRPRPYFWPRP, the “shrunken log2 fold change” value was -0.241.

For RRIRARPPRLPRPRPRPPVVPRP, the “shrunken log2 fold change” value amounted to 0.378.

Take RRIRARPPRLPRPRPRPPNWPRP: the “shrunken log2 fold change” value amounted to 0.59.

Regarding RRIRIRPPRLPRPRPRPMALPRP, the “shrunken log2 fold change” value was -0.581.

Regarding RRIRTRPPRLPRPRPRPIMLPRP, the “shrunken log2 fold change” value was -0.32.

For RRIRIRPPRLPRPRPRPNPGPRP, the “shrunken log2 fold change” value is -0.209.

As for RRIRSRPPRLPRPRPRPSAWPRP, the “shrunken log2 fold change” value came out at 0.555.

As for RRIRGRPPRLPRPRPRPSKGPRP, the “shrunken log2 fold change” value is -0.403.

Turning to RRIRARPPRLPRPRPRPTCCPRP, the “shrunken log2 fold change” value was determined as 0.653.

Regarding RRIRQRPPRLPRPRPRPYEQPRP, the “shrunken log2 fold change” value is -0.609.

On to RRIRHRPPRLPRPRPRPMNDPRP, for which the “shrunken log2 fold change” value is -0.108.

RRIRCRPPRLPRPRPRPDLDPRP: the “shrunken log2 fold change” value is 0.0676.

Take RRIRVRPPRLPRPRPRPHWTPRP: the “shrunken log2 fold change” value was -0.045.

On to RRIRQRPPRLPRPRPRPKTNPRP, for which the “shrunken log2 fold change” value is -0.117.

In the case of RRIRERPPRLPRPRPRPLTWPRP, the “shrunken log2 fold change” value is 3.04.

RRIRIRPPRLPRPRPRPQCGPRP: the “shrunken log2 fold change” value is 0.0719.

On to RRIRTRPPRLPRPRPRPNLEPRP, for which the “shrunken log2 fold change” value was -0.0562.

Take RRIRKRPPRLPRPRPRPEFLPRP: the “shrunken log2 fold change” value was -0.00158.

With RRIRARPPRLPRPRPRPDNVPRP, the “shrunken log2 fold change” value was -0.059.

Consider RRIRARPPRLPRPRPRPTDPPRP, for which the “shrunken log2 fold change” value amounted to 0.2.

As to RRIRQRPPRLPRPRPRPNKDPRP, the “shrunken log2 fold change” value is -0.665.

Turning to RRIRTRPPRLPRPRPRPPYWPRP, the “shrunken log2 fold change” value stood at 0.0831.

For the sequence RRIRHRPPRLPRPRPRPPPSPRP, the “shrunken log2 fold change” value amounted to 0.87.

Consider RRIRRRPPRLPRPRPRPWEIPRP, for which the “shrunken log2 fold change” value is -0.0233.

Regarding RRIRVRPPRLPRPRPRPMTAPRP, the “shrunken log2 fold change” value was -0.12.

Regarding RRIRVRPPRLPRPRPRPGPMPRP, the “shrunken log2 fold change” value was 0.189.

Turning to RRIRWRPPRLPRPRPRPVHSPRP, the “shrunken log2 fold change” value is -0.37.

For the sequence RRIRYRPPRLPRPRPRPLWIPRP, the “shrunken log2 fold change” value is -0.103.

For RRIRHRPPRLPRPRPRPDREPRP, the “shrunken log2 fold change” value was 0.0062.

In the case of RRIRMRPPRLPRPRPRPAKPPRP, the “shrunken log2 fold change” value was 0.453.

Turning to RRIRGRPPRLPRPRPRPNVAPRP, the “shrunken log2 fold change” value turned out to be 1.15.

Consider RRIRMRPPRLPRPRPRPACRPRP, for which the “shrunken log2 fold change” value was 0.633.

As for RRIRNRPPRLPRPRPRPIVYPRP, the “shrunken log2 fold change” value is -0.528.

Turning to RRIRNRPPRLPRPRPRPQRTPRP, the “shrunken log2 fold change” value is -0.248.

Regarding RRIRNRPPRLPRPRPRPGARPRP, the “shrunken log2 fold change” value was 0.582.

For RRIRDRPPRLPRPRPRPCRPPRP, the “shrunken log2 fold change” value was found to be 0.0754.

As to RRIRSRPPRLPRPRPRPQCFPRP, the “shrunken log2 fold change” value is -0.282.

As for RRIRERPPRLPRPRPRPQGPPRP, the “shrunken log2 fold change” value was found to be 0.0515.

Consider RRIRMRPPRLPRPRPRPKDNPRP, for which the “shrunken log2 fold change” value was 1.43.

As to RRIRVRPPRLPRPRPRPNRFPRP, the “shrunken log2 fold change” value stood at 0.11.

Consider RRIRGRPPRLPRPRPRPTRGPRP, for which the “shrunken log2 fold change” value came out at 0.808.

Regarding RRIRTRPPRLPRPRPRPWDDPRP, the “shrunken log2 fold change” value came out at 0.033.

Turning to RRIRHRPPRLPRPRPRPHHLPRP, the “shrunken log2 fold change” value is -0.0119.

In the case of RRIRYRPPRLPRPRPRPLKGPRP, the “shrunken log2 fold change” value was -0.00142.

Consider RRIRHRPPRLPRPRPRPSAAPRP, for which the “shrunken log2 fold change” value was 0.334.

With RRIRRRPPRLPRPRPRPQPFPRP, the “shrunken log2 fold change” value is -0.0201.

As for RRIRWRPPRLPRPRPRPILLPRP, the “shrunken log2 fold change” value was -0.0849.

As for RRIRARPPRLPRPRPRPYVVPRP, the “shrunken log2 fold change” value is -0.623.

RRIRNRPPRLPRPRPRPYSDPRP: the “shrunken log2 fold change” value was -0.031.

Take RRIRIRPPRLPRPRPRPKSRPRP: the “shrunken log2 fold change” value was -0.108.

With RRIRQRPPRLPRPRPRPFHNPRP, the “shrunken log2 fold change” value is -0.152.

RRIRYRPPRLPRPRPRPKPVPRP: the “shrunken log2 fold change” value was 0.218.

As to RRIRQRPPRLPRPRPRPWSMPRP, the “shrunken log2 fold change” value is -0.0469.

As to RRIRMRPPRLPRPRPRPFSHPRP, the “shrunken log2 fold change” value turned out to be 0.0882.

For the sequence RRIRFRPPRLPRPRPRPCFLPRP, the “shrunken log2 fold change” value was -0.623.

For the sequence RRIRLRPPRLPRPRPRPRSHPRP, the “shrunken log2 fold change” value was 0.195.

As to RRIRIRPPRLPRPRPRPLGEPRP, the “shrunken log2 fold change” value is -0.277.
